Experiments:
CD46 (human) = CD46 (human) (UniProt P15529); assay: SPR; Biacore T200; CD46 or CAR amine-coupled to a CM5 chip (2,390-2,640 RU CD46, 2,380-2,870 RU CAR); whole virions as analyte, twofold series 50-12.5 µg/mL, 120 s at 30 µL/min; 25°C, HBS-EP+ (10 mM HEPES, 150 mM NaCl, 3 mM EDTA, 0.005% P20, pH 7.4); performed once
[1] = molecular target: coxsackievirus and adenovirus receptor (CAR) (UniProt P78310); assay: as above
Chain of coxsackievirus and adenovirus receptor (CAR) (P78310 20-365): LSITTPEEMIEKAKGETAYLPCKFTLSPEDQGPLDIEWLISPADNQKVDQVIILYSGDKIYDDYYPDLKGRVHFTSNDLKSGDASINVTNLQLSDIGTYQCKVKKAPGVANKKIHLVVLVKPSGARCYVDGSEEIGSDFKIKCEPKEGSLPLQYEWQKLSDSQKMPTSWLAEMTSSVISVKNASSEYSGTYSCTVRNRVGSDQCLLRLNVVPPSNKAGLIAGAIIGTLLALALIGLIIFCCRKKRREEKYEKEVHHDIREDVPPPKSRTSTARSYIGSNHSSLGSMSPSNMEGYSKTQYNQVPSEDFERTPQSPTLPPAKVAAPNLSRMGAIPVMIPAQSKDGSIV

Chain of CD46 (human) (P15529 35-392): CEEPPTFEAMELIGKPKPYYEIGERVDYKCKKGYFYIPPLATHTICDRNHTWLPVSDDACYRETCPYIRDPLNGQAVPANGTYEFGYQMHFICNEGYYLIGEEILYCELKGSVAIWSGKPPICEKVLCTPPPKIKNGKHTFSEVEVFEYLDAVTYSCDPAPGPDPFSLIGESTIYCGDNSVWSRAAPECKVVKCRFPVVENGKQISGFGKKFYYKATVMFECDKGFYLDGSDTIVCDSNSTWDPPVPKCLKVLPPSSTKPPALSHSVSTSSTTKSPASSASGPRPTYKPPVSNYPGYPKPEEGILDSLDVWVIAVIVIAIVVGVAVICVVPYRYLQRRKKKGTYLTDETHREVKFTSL

Row | Substance | Kd (CD46 (human)) | Kd [1]
1 | HAdV-B11 virion (complex) | 0.0048 nM | 
2 | HAdV-D39 virion (complex) | 0.1 nM | 
3 | HAdV-D26 virion (complex) |  | 0.076 nM
4 | HAdV-D37 virion (complex) | 0.1 nM | 
